Data as given in patent US20240059789A1 (Janssen / Centocor, published 2024).

Assays:
[1] = target: Human CD3 on T cells / Jurkat cells (human, UniProt P07766 23-207); test: cell-based or functional assay
[2] = target: Human PSMA on prostate cancer cell lines (C4-2B, 22RV1) (human, UniProt Q04609 1-750); test: cell-based or functional assay
Chain of Human PSMA on prostate cancer cell lines (C4-2B, 22RV1) (Q04609 whole entry): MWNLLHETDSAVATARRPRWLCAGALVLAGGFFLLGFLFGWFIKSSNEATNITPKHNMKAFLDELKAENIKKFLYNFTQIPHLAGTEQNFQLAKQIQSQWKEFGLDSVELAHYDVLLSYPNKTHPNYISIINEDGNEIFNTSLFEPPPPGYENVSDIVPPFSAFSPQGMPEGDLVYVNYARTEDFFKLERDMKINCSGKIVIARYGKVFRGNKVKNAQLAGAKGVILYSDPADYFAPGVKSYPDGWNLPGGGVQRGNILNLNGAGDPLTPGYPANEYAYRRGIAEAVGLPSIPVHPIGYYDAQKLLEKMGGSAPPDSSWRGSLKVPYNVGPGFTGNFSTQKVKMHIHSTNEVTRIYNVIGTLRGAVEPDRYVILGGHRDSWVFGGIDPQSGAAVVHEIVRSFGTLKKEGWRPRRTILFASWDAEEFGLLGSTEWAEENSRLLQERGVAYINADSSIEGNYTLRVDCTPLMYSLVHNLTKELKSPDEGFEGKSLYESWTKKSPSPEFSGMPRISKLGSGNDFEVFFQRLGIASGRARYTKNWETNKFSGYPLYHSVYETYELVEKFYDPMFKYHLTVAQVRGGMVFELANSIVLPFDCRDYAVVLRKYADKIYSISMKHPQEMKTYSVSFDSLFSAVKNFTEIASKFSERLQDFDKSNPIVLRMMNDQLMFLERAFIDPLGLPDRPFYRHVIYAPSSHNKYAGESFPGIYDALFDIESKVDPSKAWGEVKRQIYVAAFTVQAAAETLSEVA

Chain of Human CD3 on T cells / Jurkat cells (P07766 23-207 limits assumed): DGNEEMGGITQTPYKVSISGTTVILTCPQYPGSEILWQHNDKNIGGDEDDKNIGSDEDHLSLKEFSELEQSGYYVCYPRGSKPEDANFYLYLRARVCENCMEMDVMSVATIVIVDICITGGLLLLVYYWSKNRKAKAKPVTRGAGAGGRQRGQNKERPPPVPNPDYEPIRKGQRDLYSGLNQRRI

T cell activation EC50 [M] (CD25+ T cells, C4-2B co-culture, 72 h) [1]	Binder	Tumor killing EC50 [M] (C4-2B + PAN-T cells, 72 h, flow cytometry) [2]
1.87e-10	PS3B919 (bispecific antibody, human IgG1, lambda, L234A L235A) heavy 1: QVQLQQSGPRLVRPSQTLSLTCAISGDSVFNNNAAWSWIRQSPSRGLEWLGRTYYRSKWLYDYAVSVKSRITVNPDTSRNQFTLQLNSVTPEDTALYYCARGYSSSFDYWGQGTLVTVSSASTKGPSVFPLAPSSKSTSGGTAALGCLVKDYFPEPVTVSWNSGALTSGVHTFPAVLQSSGLYSLSSVVTVPSSSLGTQTYICNVNHKPSNTKVDKKVEPKSCDKTHTCPPCPAPEAAGGPSVFLFPPKPKDTLMISRTPEVTCVVVSVSHEDPEVKFNWYVDGVEVHNAKTKPREEQYNSTYRVVSVLTVLHQDWLNGKEYKCKVSNKALPAPIEKTISKAKGQPREPQVYTLPPSREEMTKNQVSLTCLVKGFYPSDIAVEWESNGQPENNYKTTPPVLDSDGSFLLYSKLTVDKSRWQQGNVFSCSVMHEALHNHYTQKSLSLSPG light 1: QSALTQPASVSGSPGQSITISCTGTSSNIGTYKFVSWYQQHPDKAPKVLLYEVSKRPSGVSSRFSGSKSGNTASLTISGLQAEDQADYHCVSYAGSGTLLFGGGTKLTVLGQPKAAPSVTLFPPSSEELQANKATLVCLISDFYPGAVTVAWKADSSPVKAGVETTTPSKQSNNKYAASSYLSLTPEQWKSHRSYSCQVTHEGSTVEKTVAPTECS heavy 2: EVQLVESGGGLVQPGGSLRLSCAASGFTFSSYAMSWVRQAPGKGLEWVSAISGGIGSTYYADSVKGRFTISRDNSKNTLWLQMNSLRAEDTAVYYCAKDGVGATPYYFDYWGQGTLVTVSSASTKGPSVFPLAPSSKSTSGGTAALGCLVKDYFPEPVTVSWNSGALTSGVHTFPAVLQSSGLYSLSSVVTVPSSSLGTQTYICNVNHKPSNTKVDKKVEPKSCDKTHTCPPCPAPEAAGGPSVFLFPPKPKDTLMISRTPEVTCVVVSVSHEDPEVKFNWYVDGVEVHNAKTKPREEQYNSTYRVVSVLTVLHQDWLNGKEYKCKVSNKALPAPIEKTISKAKGQPREPQVYTLPPSREEMTKNQVSLTCLVKGFYPSDIAVEWESNGQPENNYKTTPPVLDSDGSFFLYSRLTVDKSRWQQGNVFSCSVMHEALHNHYTQKSLSLSPG light 2: QSVLTQPPSVSAAPGQKVTISCSGSSSNIGNNYVSWYQQLPGTAPKLLIYDNNKRPSGIPDRFSGSKSGTSATLGITGLQTGDEADYYCGTWDSSLSAYVFGTGTKVTVLGQPKAAPSVTLFPPSSEELQANKATLVCLISDFYPGAVTVAWKADSSPVKAGVETTTPSKQSNNKYAASSYLSLTPEQWKSHRSYSCQVTHEGSTVEKTVAPTECS	2.1e-10
4.73e-11	PS3B912 (bispecific antibody, human IgG1, lambda, L234A L235A) heavy 1: QVQLQQSGPRLVRPSQTLSLTCAISGDSVFNNNAAWSWIRQSPSRGLEWLGRTYYRSKWLYDYAVSVKSRITVNPDTSRNQFTLQLNSVTPEDTALYYCARGYSSSFDYWGQGTLVTVSSASTKGPSVFPLAPSSKSTSGGTAALGCLVKDYFPEPVTVSWNSGALTSGVHTFPAVLQSSGLYSLSSVVTVPSSSLGTQTYICNVNHKPSNTKVDKKVEPKSCDKTHTCPPCPAPEAAGGPSVFLFPPKPKDTLMISRTPEVTCVVVSVSHEDPEVKFNWYVDGVEVHNAKTKPREEQYNSTYRVVSVLTVLHQDWLNGKEYKCKVSNKALPAPIEKTISKAKGQPREPQVYTLPPSREEMTKNQVSLTCLVKGFYPSDIAVEWESNGQPENNYKTTPPVLDSDGSFLLYSKLTVDKSRWQQGNVFSCSVMHEALHNHYTQKSLSLSPG light 1: QSALTQPASVSGSPGQSITISCTGTSSNIGTYKFVSWYQQHPDKAPKVLLYEVSKRPSGVSSRFSGSKSGNTASLTISGLQAEDQADYHCVSYAGSGTLLFGGGTKLTVLGQPKAAPSVTLFPPSSEELQANKATLVCLISDFYPGAVTVAWKADSSPVKAGVETTTPSKQSNNKYAASSYLSLTPEQWKSHRSYSCQVTHEGSTVEKTVAPTECS heavy 2: EVQLVESGGGLVQPGGSLRLSCTASGFIFSSYAMSWVRQAPGKGLEWVSAISGGYGAPYYADTVKGRFTISRDNSKNTLYLQMNSLRAEDTAVYYCAKDGVGATPYYFDDWGQGILVTVSSASTKGPSVFPLAPSSKSTSGGTAALGCLVKDYFPEPVTVSWNSGALTSGVHTFPAVLQSSGLYSLSSVVTVPSSSLGTQTYICNVNHKPSNTKVDKKVEPKSCDKTHTCPPCPAPEAAGGPSVFLFPPKPKDTLMISRTPEVTCVVVSVSHEDPEVKFNWYVDGVEVHNAKTKPREEQYNSTYRVVSVLTVLHQDWLNGKEYKCKVSNKALPAPIEKTISKAKGQPREPQVYTLPPSREEMTKNQVSLTCLVKGFYPSDIAVEWESNGQPENNYKTTPPVLDSDGSFFLYSRLTVDKSRWQQGNVFSCSVMHEALHNHYTQKSLSLSPG light 2: QSVLTQPPSVSAAPGQKVTISCSGSSSNIGNNYVSWYQQLPGTAPKLLIFDNNKRPSGIPDRFSGSKSGTSATLGITGLQTGDEADYYCGTWDSSLSAYVFGTGTKVTVLGQPKAAPSVTLFPPSSEELQANKATLVCLISDFYPGAVTVAWKADSSPVKAGVETTTPSKQSNNKYAASSYLSLTPEQWKSHRSYSCQVTHEGSTVEKTVAPTECS	6.51e-11
2.4e-12	PS3B930 (bispecific antibody, human IgG1, kappa, lambda, L234A L235A) heavy 1: EVQLVESGGGLVKPGGSLRLSCAASGFTFSRYNMNWVRQAPGKGLEWVSSISTSSNYIYYADSVKGRFTFSRDNAKNSLDLQMSGLRAEDTAIYYCTRGWGPFDYWGQGTLVTVSSASTKGPSVFPLAPSSKSTSGGTAALGCLVKDYFPEPVTVSWNSGALTSGVHTFPAVLQSSGLYSLSSVVTVPSSSLGTQTYICNVNHKPSNTKVDKKVEPKSCDKTHTCPPCPAPEAAGGPSVFLFPPKPKDTLMISRTPEVTCVVVSVSHEDPEVKFNWYVDGVEVHNAKTKPREEQYNSTYRVVSVLTVLHQDWLNGKEYKCKVSNKALPAPIEKTISKAKGQPREPQVYTLPPSREEMTKNQVSLTCLVKGFYPSDIAVEWESNGQPENNYKTTPPVLDSDGSFLLYSKLTVDKSRWQQGNVFSCSVMHEALHNHYTQKSLSLSP light 1: DIQMTQSPSSLSASVGDRVTITCRARQSIGTAIHWYQQKPGKAPKLLIKYASESISGVPSRFSGSGSGTDFTLTISSLQPEDFATYYCQQSGSWPYTFGQGTKLEIKRTVAAPSVFIFPPSDEQLKSGTASVVCLLNNFYPREAKVQWKVDNALQSGNSQESVTEQDSKDSTYSLSSTLTLSKADYEKHKVYACEVTHQGLSSPVTKSFNRGEC heavy 2: EVQLVESGGGLVKPGGSLRLSCAASGFTFSRYNMNWVRQAPGKGLEWVSSINSNSRYIYYADSVKGRFTISRDSAKNSLYLQMNSLRAEDTAVYYCAKTMGDYYYYYGMDVWGQGTTVTVSSASTKGPSVFPLAPSSKSTSGGTAALGCLVKDYFPEPVTVSWNSGALTSGVHTFPAVLQSSGLYSLSSVVTVPSSSLGTQTYICNVNHKPSNTKVDKKVEPKSCDKTHTCPPCPAPEAAGGPSVFLFPPKPKDTLMISRTPEVTCVVVSVSHEDPEVKFNWYVDGVEVHNAKTKPREEQYNSTYRVVSVLTVLHQDWLNGKEYKCKVSNKALPAPIEKTISKAKGQPREPQVYTLPPSREEMTKNQVSLTCLVKGFYPSDIAVEWESNGQPENNYKTTPPVLDSDGSFFLYSRLTVDKSRWQQGNVFSCSVMHEALHNHYTQKSLSLSPG light 2: QSVLTQPPSVSGAPGQRVTISCTGSSFNLGAGYDVHWYQQVPGTVPKLLIYDNSNRPSGVPDRFSGSKSGTSASLAITGLQAEDETVYYCQSYDSSLSGVVFGGGTKLTVLGQPKAAPSVTLFPPSSEELQANKATLVCLISDFYPGAVTVAWKADSSPVKAGVETTTPSKQSNNKYAASSYLSLTPEQWKSHRSYSCQVTHEGSTVEKTVAPTECS	
